From the RNAGym collection of RNA variant scans (doi:10.1073/pnas.2313332121)
Fewer inactive variants are shown than the library holds.

B1: TPR 5TU (parent)
chain: GGAUCUUCUCGAUCUAACAAAAAAGACAAAUCUGCCACAAAGCUUGAGAGCAUCUUCGGAUGCAGAGGCGGCAGCCUUCGGUGGCGCGAUAGCGCCAACGUUCUCAACUAUGACACGCAAAACGCGUGCUCCGUUGAAUGGAGUUUAUCAUG

Variants of: B1
Assay: polymerase ribozyme fitness, log enrichment relative to wild type (log ratio); higher = more active; in vitro selection for triplet polymerase activity
How it was run: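 Only genotypes with ≥10 input reads and ≥1 read per output were kept after Illumina sequencing of input and output libraries. These libraries were PCR-built, transcribed mutants of each subunit of a heterodimeric triplet polymerase ribozyme, each put through one triplicate in vitro selection round with frozen incubation at −7 °C, gel excision of extended constructs, streptavidin-bead capture and RT-PCR. Fitness is a logarithmic ratio of genotype enrichment to wild-type enrichment, from inverse-variance-weighted replicate averages, with the logarithm in base 2.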

Compared with GGAUCUUCUCGAUCUAACAAAAAAGACAAAUCUGUCACAAAGCUUGAGAGCAUCUUCGGAUGCAGAGGCGGCAGCCUUCGGUGGCGCGAUAGAGCCAACGUUGUCAACUAUGACACGCAAAACGCGUGCUCCGUUGAAUGGAGUUUAUCAUG [C35U C93A C103G], GGAUCUUCUCGAUCUAACAAAAAAGACAAAUCUGUCACAAAGCUUGAGAGCAUCUUCGAAUGCAGAGGCGGCAGCCUUCGGUUGCGCGAUAGCGCCACCGUUCUCAACUAUGACACGCAAAACGCGUCCUCCGUUGAAUGGAGUUUAUCAUG [C35U G59A G83U A98C G128C] is higher in “polymerase ribozyme fitness (log ratio)” value: at most -4.2 for the first, -3.94 for the second.

GGAUCUUCUCGAUCUAACAAAAAAGACAAAUCUGUCACAAAGCUUGAGAGCAUCUUCGGAUGCAGAGGCGGCAGCCUUCGUGGGCGCUAUAGCUCCAACGUUCUCAACUAUGACACGCAAAACGCGUGCUCCGUUGAACGGAGUUUAUAAUG [C35U G81U U82G G88U G94U U139C C149A] and GGAUCUUCUCGAUCUAACAAAAAAGACAAAUCUGUCACAAAGCUUGAGAGCAUCUUCGCAUGCAGAGGCGGCAGCCUUCGAUAGCGCGAUAGCGCCAACGUUCUCAACUGUGACACGCAAAACGCGUGCUCCCUUGAAUGGAGUUUAUCAUG [C35U G59C G81A G83A A110G G133C] cannot be ordered by “polymerase ribozyme fitness (log ratio)” value: at most -4.2 for the first, at most -4.2 for the second.

First: GGAUCUUCUCGAUCUAACAAAAAAGACAAAUCUGUCACAAAGCUUGAGAGCAUCUUCAGCUGCAGAGGCGGCAGCCUUCGGUGGCGCGAUAGGGCUAACGUUCUUAACUAUGACAUGCAAAACGCGUGCUCCGUUGAAUGGAGUUUAUCAUG [C35U G58A A60C C93G C96U C105U C116U]
Second: GGAUCUUCUCGAUCUAACAAAAAAGACAAAUCUGUCACAAAGCUUGAGAGCAUCUUCGGAUGCAGAGGCGGCAGCCUUCGGUGGCGCGAUAGCGCCAACGUUCUCAACUAUGACACGCAAAACGCGUGUUCCGUUGAAUGGAGUUUAUCAUG [C35U C129U]
The “polymerase ribozyme fitness (log ratio)” value of the first is lower: at most -4.2 for the first, -0.479 for the second.

Compared with GGAUCUUCUCGAUCUAACAAAAAAGACAAAUCUGUCACAAAGCUUGAGAGCAUCUUCGGAUGCAGAGGCGGCAGCCUUCGGUGGCGCGAUAGCGCCAAGGUUCUCAACUAUGACACGCCAAACGCGUGCUCCGUUGAAUGUAGUUUAUCAUG [C35U C99G A119C G141U], GGAUCUUCUCGAUCUAACAAAAAAGACAAAUCUGUCACAAAGCUUGAGAGCAUCUUCCGAUGCAGAGGCGGCAGCCUUCGGUGGCGCGAGAGCGCCAACGUUCACAACUAUGACACGCAAAACGCAUGCUCCGUAGAAUGGAGUGUAUCAUG [C35U G58C U90G U104A G126A U135A U145G] is lower in “polymerase ribozyme fitness (log ratio)” value: -1.83 for the first, at most -4.2 for the second.

Going from GGAUCUUCUCGAUCUAACAAAAAAGACAAAUCUGUCACAAAGCUUAAGAGCAUCUUCGGAUGCAGAGGCGGCAGCCUUCGGUGGCGCGAUAGCGCCAACGUUCUCAACUAUGACACGCGAUACGCGUGCUCCGUUGAAUGGAGUUUAUCAUG [C35U G46A A119G A121U] to GGAUCUUCUCGAUCUAACAAAAAAGACAAAUCUGUCACAAAGCUUGAGAGCAUCUUCGGAUGCAGAGGCGUCAGCCUUCGGUGGCGCGAUAGCGCCAACGUUCUCAACUAUGACACGCAAAACGCGUGCUCCGUUGAAUGGAGUUUAUCAUG [C35U G71U], the “polymerase ribozyme fitness (log ratio)” value falls from -1.45 to -3.53.

Compared with GGAUCUUCUCGAUCUAACAAAAAAGACAAAUCUGUCACAAAGCUUGAGAGCAUCUUCGGAUGCAGAGGCGGCAGCCUUCGGUGGCGCGAUAGCGCCAACGUUCUCAACUAUGACACGCAAAACGCGUGCUCCGUUGAAUGGAGUUUAUUAUG [C35U C149U], GGAUCUUCUCGAUCUAACAAAAAAGACAAAUCUGUCACAAAGCUUGAGAGCAUCUUCGGAUGCAGAGGCGGCAGCCUUCGGUGGCGCGAUAGCGCUAACGUUCUCAACUAUGACACGCAAAACGCGUGCUCCGUUGAAUGGAGUUUAUCAUG [C35U C96U] is higher in “polymerase ribozyme fitness (log ratio)” value: -1.57 for the first, -0.126 for the second.

Compared with GGAUCUUCUCGAUCUAACAAAAAAGACAAAUCUGUCACAAAGCUUGAGAGCAUCUUCGGAUGCAGAGGCGGCAGCCUUCGGUGGCGCGAUAGCGCGAACGUUCUCAACUAUGACACGCAAAACGCGUGCUCCGUUGAAUGGAGUUUAUCAUG [C35U C96G], GGAUCUUCUCGAUCUAACAAAAAAGACAAAUCUGUCACAAAGCUUGAGAGCAUCUUCGGAUGCAGAGGCGGCAGCCUUCGGUGCCGCGAUAGCGCCAACGUUCUCAACUAUGACACGCAAAACGCGUGCUCCGUUGAAUGGAGUUUAUCAUG [C35U G84C] is lower in “polymerase ribozyme fitness (log ratio)” value: -0.818 for the first, -1.94 for the second.

GGAUCUUCUCGAUCUAACAAAAAAGACAAAUCUGUCACAAAGCUUGAAAGCAUCUUCGGAUGCAGAGGCGGCAGCCUCCGGUGGCGCGAUAGCGCGAACGUUCUCAACUAUGACACCCAAAACGCGUGCUCCGUUGAAUGGAGUUUAUCAUG [C35U G48A U78C C96G G117C] and GGAUCUUCUCGAUCUAACAAAAAAGACAAAUCUGUCACAAAGCUUGAGAUCAUCUUCGCUUGCAGAGGCGGCAGCCUUCGGUGGAGCGAUAGCCCCAACGUUCUCAACUAUGACACGCAAAACGCGUGCUCCGUUGAAUGAAGUUUAUCAUG [C35U G50U G59C A60U C85A G94C G141A] cannot be ordered by “polymerase ribozyme fitness (log ratio)” value: at most -4.2 for the first, at most -4.2 for the second.

Going from GGAUCUUCUCGAUCUAACAAAAAAGACAAAUCUGUCACAAAGCUUGAGAGCAUCUUCCGAUGCAGAGGCGACAGCCUUCGGUGGCGCGAUAGGGCCAACGUUCUCAACUAUGACACGCAAAACGCGUGCUCCGUUGAAUGGAGUUUAUCAUG [C35U G58C G71A C93G] to GGAUCUUCUCGAUCUAACAAAAAAGACAAAUCUGUCACAAAGCUUGAGACCAUCUUCGGAUGCAGAGGCGGCAGCCUUCGGUGGCGCGAUAGCGCCAACGUUCUCAACUAUGACACGCAAAACGCGUGCUCCGUUGAAUGGAGUUUAUCAUG [C35U G50C], the “polymerase ribozyme fitness (log ratio)” value falls from -3.09 to -3.9.

For GGAUCUUCUCGAUCUAACAAAAAAGACAAAUCUGUCACAAAGCUUGAGAGCAUCUUCGGAUACAGAGGCGGCAGCCUUCGGUUGCCCGAUAGCGCCAACGUUCUCAACUAUGACACGCAAAACGGGUGCUCCGUUGAAUGGUGUUUAUCAUG [C35U G62A G83U G86C C125G A142U], the “polymerase ribozyme fitness (log ratio)” value was at most -4.2.
